Laboratory results reported in article PMC5640227.

B1: Human Respiratory Syncytial Virus Matrix (M) protein, GAL4 fusion (natural protein)
chain: METYVNKLHEGSTYTAAVQYNVLEKDDDPASLTIWVPMFQSSMPADLLIKELANVNILVKQISTPKGPSLRVMINSRSAVLAQMPSKFTICANVSLDERSKLAYDVTTPCEIKACSLTCLKSKNMLTTVKDLTMKTLNPTHDIIALCEFENIVTSKKVIIPTYLRSISVRNKDLNTLENITTTEFKNAITNAKIIPYSGLLLVITVTDNKGAFKYIKPQSQFIVDLGAYLEKESIYYVTTNWKHTATRFAIKPMED

Assays:
[1] = target: Human Respiratory Syncytial Virus Matrix (M) protein, GAL4 fusion (Human Respiratory Syncytial Virus) (UniProt P0DOE7); assay: two-hybrid
[2] = target: Adaptor protein complex 3 medium subunit (AP-3Mu3A), GAL4 fusion (human (HeLa cDNA library)) (UniProt Q9Y2T2); assay: two-hybrid
UniProt Q9Y2T2, sequence (Q9Y2T2 whole entry, the tested form may be a part, one chain of several): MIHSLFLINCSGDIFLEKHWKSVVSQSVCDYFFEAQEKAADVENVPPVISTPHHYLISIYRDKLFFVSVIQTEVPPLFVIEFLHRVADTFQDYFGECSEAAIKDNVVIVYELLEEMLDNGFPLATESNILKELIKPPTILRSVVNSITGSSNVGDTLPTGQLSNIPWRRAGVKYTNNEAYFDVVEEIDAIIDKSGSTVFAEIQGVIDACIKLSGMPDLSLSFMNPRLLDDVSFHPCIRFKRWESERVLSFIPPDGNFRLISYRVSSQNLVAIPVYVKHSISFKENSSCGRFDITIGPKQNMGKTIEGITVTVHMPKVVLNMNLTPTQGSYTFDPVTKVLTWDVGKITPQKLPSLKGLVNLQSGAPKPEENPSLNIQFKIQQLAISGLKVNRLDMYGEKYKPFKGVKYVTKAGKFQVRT

Molecule	beta-Galactosidase activity [1]	beta-Galactosidase activity [2]
Adaptor protein complex 3 medium subunit (AP-3Mu3A), GAL4 fusion (from UniProt Q9Y2T2 1-418) (natural protein)	458 units	
B1		420 units
